Measurements: article PMC11267573, “A Robust α-L-Fucosidase from Prevotella nigrescens for Glycoengineering Therapeutic Antibodies” (ACS Chemical Biology, 2024)

T1: MBP-AlfC (Lacticaseibacillus paracasei, UniProt A0A422MHI3)
T1 construct: gene BN194_28780; pMAL-c4X, E. coli; codon-optimized synthetic gene
T1 sequence (A0A422MHI3 1-344): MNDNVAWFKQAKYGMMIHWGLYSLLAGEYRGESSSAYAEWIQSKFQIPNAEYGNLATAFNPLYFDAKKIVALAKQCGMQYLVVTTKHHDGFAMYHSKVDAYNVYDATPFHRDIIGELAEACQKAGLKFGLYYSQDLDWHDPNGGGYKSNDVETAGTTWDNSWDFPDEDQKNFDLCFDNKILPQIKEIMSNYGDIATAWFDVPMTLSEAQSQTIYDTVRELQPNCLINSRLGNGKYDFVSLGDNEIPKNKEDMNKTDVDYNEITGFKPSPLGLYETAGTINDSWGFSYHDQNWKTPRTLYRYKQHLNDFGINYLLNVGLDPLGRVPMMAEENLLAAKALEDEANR

B1: Δ20PnfucA (Prevotella nigrescens CC14M) (protein)
chain: QTNSQQQESNNRATTTESVPQKYIPTAENLAARKRFEGFRFGIFLHWGIYSTFAQGEWYLNNKINKDEYAKAASAFYPSYFDADAWISAIKASGAKYITFTSRHHDSFSMFKTKESNYNIVDATPFKRDVLKELANACHKQNIDLHIYYSILDWIREDYPIGRTGLYTGRKLKPNYGTYFNFMKGQVSELLHNYGKVGAIWLDGYWDHDSDSIPFDWRMEEFYRYIHSIQPACLIGNNHHIAPIDGEDFQMFERDLPGENKAGLSGQAISRLPLEACQTMNGMWGYKVSDINYKSTSQLIELLVRSAAKGSNLLLNIGPQPNGELPALALDRLQGIGKWMQQYGETIYETMAGDVAEADWGVSTSKGKKTYLHVLEQDAKTISCALSVKPKRVIDFASRQPLSFHYDKKTKTLTTHIGSHRNVVDYIIEIEK
notes: 20 N-terminal residues (signal peptide) removed; apparent mass ~52 kDa; codon-optimized synthetic gene

Legend:
Test in all cases: p-nitrophenol release, initial-rate kinetics
MBP-PnfucA = molecular target: T2, MBP-PnfucA (Prevotella nigrescens, UniProt V8CPU0); type: biochemical; conditions: assay details in supplement; MBP fusion
T2 construct: gene HMPREF1173_00896; pMAL-c4X, E. coli; poor purity
Excerpt: p-nitrophenol release, initial-rate kinetics on MBP-PnfucA

MBP-AlfC = molecular target: T1, MBP-AlfC; type: biochemical; conditions: assay details in supplement; MBP fusion
Excerpt: p-nitrophenol release, initial-rate kinetics on MBP-AlfC

[1] = substrate: C[C@@H]1O[C@@H](Oc2ccc([N+](=O)[O-])cc2)[C@@H](O)[C@H](O)[C@@H]1O; type: biochemical, Prevotella nigrescens; conditions: assay details in supplement
Excerpt: p-nitrophenol release, initial-rate kinetics on Δ20PnfucA

Row | Molecule | Km (MBP-PnfucA) [µM] | Km (MBP-AlfC) [µM] | Km [1] [µM] | kcat [1] [s⁻¹] | kcat/Km [1] [M⁻¹ s⁻¹]
1 | C[C@@H]1O[C@@H](Oc2ccc([N+](=O)[O-])cc2)[C@@H](O)[C@H](O)[C@@H]1O [pNP-Fuc] | 250 ± 20 | 620 ± 60 |  |  | 
2 | B1 |  |  | 560 ± 50 | 66.5 ± 2 | 119000
